This note sets out measurements from PMC4159269.

What all share (assay): co-IP; HEK293T co-transfected with FLAG-Siah construct and HA-PHD3; lysate on anti-FLAG M2 agarose beads, 4°C 1 hour, washed with NP40 lysis buffer; blot with anti-HA; densitometry as percentage of WT Siah2 SBD for Fig. 7c
Assay [1] concerns the target SBD[S1]^NT[S2]^CT (SBD chimera with Siah1 N-terminus and Siah2 C-terminus) (human).
The target in assay [2] is [S1-6Mut]^NT[S2]^CT (6Mut = E17S/P21H/A26P/P57S/Q62A/F98H) (human).
In assay [3] the target is [S1-8Mut]^NT[S2]^CT (8Mut = N3S/E17S/P21H/A26P/F34Y/P57S/Q62A/F98H) (human).

“HA-PHD3 (prolyl hydroxylase 3) (from UniProt Q9H6Z9 1-239) (natural protein)”: the figures for the binding as percentage of the binding of WT Siah2 SBD to PHD3 (densitometry) in assay [1], in assay [2] and in assay [3] were 4 percent, 29 percent and 48 percent, respectively.
